# In patent US20040209325:
# T1: bovine brain myelin basic protein (MBP, Sigma), P02687
# T1 chain: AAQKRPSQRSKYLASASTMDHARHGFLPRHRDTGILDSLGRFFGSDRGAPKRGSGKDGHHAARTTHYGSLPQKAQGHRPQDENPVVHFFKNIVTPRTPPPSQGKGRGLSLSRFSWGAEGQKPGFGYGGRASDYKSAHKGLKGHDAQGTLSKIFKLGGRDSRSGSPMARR
# B1: OsMAPK5a, endogenous protein from rice leaf extracts (protein)
# chain: MDGAPVAEFRPTMTHGGRYLLYDIFGNKFEVTNKYQPPIMPIGRGAYGIVCSVMNFETREMVAIKKIANAFNNDMDAKRTLREIKLLRHLDHENIIGIRDVIPPPIPQAFNDVYIATELMDTDLHHIIRSNQELSEEHCQYFLYQILRGLKYIHSANVIHRDLKPSNLLLNANCDLKICDFGLARPSSESDMMTEYVVTRWYRAPELLLNSTDYSAADVWSVGCIFMELINRQPLFPGRDHMHQMRLITEVIGTPTDDELGFIRNEDARKYMRHLPQYPRRTFASMFPRVQPAALDLIERMLTFNPLQRITVEEALDHPYLERLHDIADEPICLEPFSFDFEQKALNEDQMKQLIFNEAIEMNPNIRY
# Target: T1, bovine brain myelin basic protein (MBP, …)
protein,measurement,value
B1,in-gel kinase assay of immunoprecipitated OsMAPK5a,the OsMAPK5a kinase activity was significantly induced by P. grisea infection
